± gives the uncertainty stated by the source.
Assay: protein stability index of a GFP-peptide fusion (yeast GPS) (PSI 1-4); higher = more stable; sorted into four equal gates, so the index is relative within each strain
Method in brief: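 Each library plasmid carries Cherry plus GFP with a tiled 17-residue yeast protein peptide fused downstream, and the pooled library was carried in yeast. Mid-log cultures in leucine-free medium were sorted into four equal gates by GFP/Cherry ratio. Reads from Illumina sequencing of PCR-amplified plasmids from each gate were assigned to strains by barcodes. Per peptide, the protein stability index was computed as the summed products of gate read frequency and gate number.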

Sequence	protein stability index (doa10∆)	protein stability index (pdr5∆)	protein stability index (san1∆)	protein stability index (ubr1∆)
SPISDSRDELIRLAKTL [RPN10]	1.84 ± 0.095	1.77 ± 0.084	2.37 ± 0.16	2.24 ± 0.085
GLSPKKVGEDIAKATKE [RPL12A]	3.03 ± 0.16	3.22 ± 0.14	3.13 ± 0.18	2.77 ± 0.24
VIPIRRGYWGTNLGQPH [RPS2]	2.04 ± 0.074	1.67 ± 0.11	1.91 ± 0.18	1.79 ± 0.13
ELQMRSFLKEGDLLNAE [RRP4]	2.71 ± 0.071	3.27 ± 0.11	3.07 ± 0.087	3.23 ± 0.08
RTYSKTYSTPKRPYESS [RPS9A]	2.19 ± 0.055	2.23 ± 0.066	2.46 ± 0.053	2.53 ± 0.043
EALVERRRAFKRSQKKH [RPB4]	3.12 ± 0.099	3.2 ± 0.081	3.22 ± 0.062	3.31 ± 0.11
FEIDGDVIHFEDSSILQ [PCI8]	3.15 ± 0.083	3.46 ± 0.072	3.04 ± 0.066	3.46 ± 0.044
MNGIQVDINRLKKGEVS [PRE3]	2.15 ± 0.095	1.57 ± 0.063	2.52 ± 0.082	1.36 ± 0.061
GIRVQDSVILASSKAVT [PRE1]	2.54 ± 0.065	2.73 ± 0.076	2.46 ± 0.068	2.38 ± 0.05
TLLVIRRLHKVLRPFLL [SNF2]	1.26 ± 0.12	1.34 ± 0.093	1.34 ± 0.16	1.09 ± 0.08
ALVAGIERYPSKVTKKH [RPL27B]	1.86 ± 0.082	1.99 ± 0.063	1.47 ± 0.12	1.96 ± 0.2
ANFKTSKKYQLADWRIR [RRP6]	2.97 ± 0.1	3.05 ± 0.096	2.84 ± 0.15	2.92 ± 0.1
ELSVVLSGIIQDIYYLA [RRI2]	2.32 ± 0.12	2.24 ± 0.14	2.02 ± 0.13	2.6 ± 0.092
CNNINKGLKENDVAVEK [BRR2]	3.17 ± 0.12	3.68 ± 0.18	3.25 ± 0.09	3.43 ± 0.12
ALLTVLKALSHHYNPKT [BRR2]	2.28 ± 0.07	2.25 ± 0.051	1.91 ± 0.081	2.41 ± 0.062
SALQQIMYQQMLKYRRL [SNF2]	1.51 ± 0.045	1.43 ± 0.036	1.44 ± 0.091	1.35 ± 0.029
SHFSLDQFITSLKCTDP [ITC1]	2.09 ± 0.073	2.42 ± 0.079	2.35 ± 0.076	2.12 ± 0.1
NLAPKLRNVFLGKCSRI [GRR1]	2.7 ± 0.048	2.43 ± 0.049	2.58 ± 0.041	2.29 ± 0.049
NEPLSEIEIEGVMSLLQ [YAR002W/NUP60]	3.31 ± 0.093	3.32 ± 0.14	3.22 ± 0.11	3.19 ± 0.094
YDSRSGTHNMYKEIRDV [RPL20A]	3.11 ± 0.069	3.06 ± 0.064	3.16 ± 0.043	3.18 ± 0.056
LEGEELAFYLRRLTAKK [RPS8A]	1.9 ± 0.068	1.75 ± 0.068	1.93 ± 0.1	3.05 ± 0.099
NEKSQAEQEKAKNIISN [LRP1]	2.59 ± 0.092	2.83 ± 0.12	2.86 ± 0.078	2.62 ± 0.17
KTGTKPAAVFAETLKHD [RPL4B]	2.17 ± 0.078	1.95 ± 0.18	1.63 ± 0.16	2 ± 0.15
IIFNYVPGPGTKLIQYE [CSL4]		2.99 ± 0.1		2.84 ± 0.098
QSKIDLTKKKNEEINKK [SEM1]		3.47 ± 0.24	2.87 ± 0.14	3.21 ± 0.076
ADNGEEYLTLNDFNDLN [MED2]	2.96 ± 0.23	3.3 ± 0.14	3.55 ± 0.12	3.27 ± 0.082

— the supplement of paper PMC9732359
